Data reported in US20260258115A1.

What was measured:
[1] = target: Respiratory Syncytial Virus fusion glycoprotein (RSV F) on RSV-A2 virus (Respiratory Syncytial Virus subtype A (RSV-A2)); assay: cell-based or functional assay
[2] = target: RSV postfusion F (postF), F deltaFP (Respiratory Syncytial Virus); assay: BLI, IgG on anti-human IgG sensor, 100 nM antigen
[3] = target: RSV prefusion F (preF), DS-Cav1 (Respiratory Syncytial Virus); assay: BLI, IgG on anti-human IgG sensor, 100 nM antigen

Binder	Neutralization IC50 (RSV subtype A) [1] [µg/mL]	Kd [2] [nM]	Kd [3] [nM]
ADI-41196 (antibody, V domains shown) VH: EVQLVESGGGLVQPGGSLRLSCIVSGFPFNTYAMSWVRQAPGKGLEWVSVVSASGGNTDYADSVKGRFTISRDNSKKTLYLQMNSLRAEDTAVYYCARTESNTLAPSWSGRYVTDWYFDLWGRGTLVTVSS VL: EIVMTQSPSSLSASVGDRVTITCRASQSISSFLNWYQQKPGKAPKLLISAASSLQSGVPSRFSGSGSGTDFTLTISSLQPEDFATYYCQQSYSIPTFGQGTRLEIK	> 25	0.595	2.92
ADI-41197 (antibody, V domains shown) VH: QVQLVQSGAEVKKPGASVKVSCKASGYTFSGYYMHWVRQAPGQGLEWVGRINPKSGDTVYAQKFQGRVTMTRDTSISTAYMELSRLISDDTAKYYCARQEDHYYGSGNFYNSFDFWGQGTLVTVSS VL: ETTLTQSPSSLSASVGDRVTITCRASQSISSNLNWYQQKPGKAPKLLIYGASTLQSGVPSRFSGSGSGTDFTLTISSLQPEDLATYYCQQSYSNPGKTFGQGTKVDIK	0.27	0.531	0.795
ADI-41190 (antibody, V domains shown) VH: QVQLVQSGAEVKKPGASVKVSCKAFGYTFRSYDMQWVRQAPGQRLEWMGWINAVNGDTKYSQKFQGRVTITRDTSATTVYMELSSLRSEDTAVYYCARWGRFWNSRSLDYYAMDVWGQGTTVTVSS VL: DIVMTQSPGTLSLSPGERATLSCRASQSISSSYLVWYQHKPGQAPRLLIYGASTRATDIPDRFSGSGSGTDFTLTISRLEPEDFAVYYCQQYGSSPLTFGQGTRLEIK	> 25	0.971	2.29
ADI-41189 (antibody, V domains shown) VH: QVQLVESGGGLVKPGGSLRLSCAASGFTFSSYSMNWVRQAPGKGLEWVSSMSSSSGYIDYADSVKGRFTISRDNAKNSLYLQMNSLRVEDTAVYYCARRNAVVVPSLMVVADYYYGMDVWGQGTTVTVSS VL: QSVLTQPPSVSGAPGQRVTISCTGSSSNIGAGYDVHWYQQLPGTAPKLLIYGNSNRPSGVPDRFSGSKSGTSASLAITGLQAEDEADYYCQSYDTSLSGPGYVFGTGTKLTVL	> 25	0.608	2.86
ADI-41200 (antibody, V domains shown) VH: EVQLLESGGGLVKPGGSLRLSCAASGLTFSDHDMSWVRQAPGKGLEWVSGIGGSGSNTYYAGSVKGRFTISRDNSKNTLYLQMDSLRVEDTAVYYCAKDPYGDYRDYYGMDVWGQGTTVTVSS VL: DIVLTQTPFSLPVTPGEPASISCRSSQSLLKSNGYNYLDWFLQKPGQSPQLLIYLGSNRASGVPDRFSGSGSGTDFTLKISRVEAEDVGVYYCMQTLQALYTFGQGTKVEIK	> 25	0.318	0.334
ADI-41202 (antibody, V domains shown) VH: QVQLVESGAEVKKPGSSVKISCKASGGTFSSHPISWVRQAPGQGLEWMGRIVPIFGIANYAQKFQGRVTMIADKSTNTAYMELSNLRSEDTAVYYCASPVYDSSGFQWGQGTLVTVSS VL: QSALIQPRSVSGSPGQSVTISCTGTSGDGGFYNYVSWYQQHPGKTPKLMIYDVDQRPSGVPDRFSGSKSGNTASLTISGLQAEDEADYYCCSYPGNPLYVFGTGTKLTVL	> 25	0.333	1.12
ADI-41215 (antibody, V domains shown) VH: QVQLVESGGGVVRPGGSLRLSCAASGFTFDDYGMSWVRQAPGKGLEWVSGINWSGGSTDYADSVKGRFTISRDNAKNSLYLQMNSLRAEDTALYYCAKEGQEWELLPWYFDLWGRGTLVTVSS VL: QPVLTQPASVSGSPGQSITIPCTGTSSDVGIYNLVSWYQQHPGKAPKLMIYDVSKRPSGVSNRFSGSKSGNTASLTISGLQAEDEADYYCCSYAGGSTYVFGTGTKLTVL	0.32	0.563	0.437
ADI-41225 (antibody, V domains shown) VH: EVQLVESGGGLVKPGGSLRLSCAASGFSLSDYYMTWLRQAPGKGLEWVSSIGTTSTYTNYAESVKDRFTISRDNAKNSLYLQMNSLRAEDTAVYYCARDWGFGVERGYFDLWGRGTLVTVSS VL: DIVLTQTPSTLSASVGDRVTITCRASQSISFWLAWYQQKPGKAPKLLIYKASTLESGVPSRFSGRGSGTDFTLTISSLQPDDFATYYCQQYNTYTWTFGQGTKVEIK	> 25	0.733	4.15
ADI-41230 (antibody, V domains shown) VH: QVQLVQSGAEVKKPGESLKISCKASGYSFTSHYWIGWVRQMPGKGLEWMGFIFPGDSDTRYSPSLQGQVTISADKSTNTAYLQWNSLKASDTAMYYCARLEYLVSGFEYWGQGTLVTVSS VL: QPGLTQPHSVSESPGKTVTISCTRSSGSIASNYVHWYQQRPGSFPTTVIYEDNQRPSGVPDRFSGSIDSSSNSASLTISGLRTEDEADYYCQSYDSSNPVVFGGGTKVTVL	24.1	0.407	1.83
ADI-41201 (antibody, V domains shown) VH: EVQLLESGGGLVQPGGSLRLSCAASGFAFDIYSMNWVRQAPGKGLEWLSYISSRGETIYYADSVKGRFTISRDNARNSLYLQMNGLRDEDTATYYCYYYGSGISSHGGAFDYWGQGTLVTVSS VL: DIVMTQTPATLSLSPGERATLTSRASQSVSSFLAWYQQKPGQAPRLLIYDVSNRATGVPARFSGSGSGTDFTLTISSLEPEDIAVYYCQQRNTWPAITFGQGTKVEIK	> 25	0.637	3.82
ADI-41231 (antibody, V domains shown) VH: QVQLVQSGAEVKKPGESLKISCKGSGYSFTNNWVGWVRQMPGKGLEWMGIIFPGDSDTRYSPSFRGQVTISVDTSINTAFLQWNSLGASDTAMYYCAMTDYNYSFKSWGQGTLVTVSS VL: NFMLTQPHSVSESPGKTITISCTRSSGNIGNNYVQWYQQRPGSSFTTVIYEDYQRPSGVPDRFSGSIDSSSNSATLTISGLKTEDEADYYCQSYDSSNPYVFGTGTKVTVL	> 25	0.426	3.05
ADI-41207 (antibody, V domains shown) VH: QVQLVQSGPALVKPTQTLTLTCTFSGFSLSTKGMCVSWIRQPPGKALEWLALIDWDDDKFYSTSLKTRLTISKDTSKNQVVLTMTNMDPVDTATYYCARTLYFYGSGSLSDYCFDYWGQGTPVTVSS VL: QPVLTQPRSVSGSPGQSVTISCTGTSRDVGNYNFVSWYQQHPGKAPKLIIYDVTKRPSGVPDRFSGSKSGNTASLTISGLQAEDEADYYCCSYAGTYTWVFGGGTKVTVL	> 25	0.438	2.53
ADI-41224 (antibody, V domains shown) VH: EVQLVETGGGLVQPGRSLRLSCTASGFTFGDYAMNWVRQAPGKGLEWIGIIRTKTYGGTTEYAASVKGRFTISRDDSKGIAYLQMNSLKTEDTGVYYCTMPVLNMDVWGQGTTVTVSS VL: QPVLTQPHSVSESPGKTVTISCTRNIGNIASNYVQWYQQRPGSSPTTVIYEDNQRPSGVPDRFSGSIDISSNSASLTISGLKTEDEADYYCQSYDSNNPWVFGGGTQLTVL	0.13	0.558	0.524
ADI-41205 (antibody, V domains shown) VH: QVQLQESGPGLVKPSGTLSLTCAVSGGSISSTNWWSWVRQPPGKGLEWIGEIYHSGSTNYNPSLKSRVTISVDKSNNQFSLNLSSVTAADTAVYYCARGVITYRGSWFLQYFDYWGQGTLVTVSS VL: DIRVTQSPDSLAVSLGERATINCKSSQSLFYSSNNQNYLAWYQQKPGQPPKLLIYWASTRQSGVPHRFSGSGSGTDFTLTISSLQAEDVAVYYCQQYYSSPLTFGGGTKVEIK	> 25	0.536	1.16
ADI-41214 (antibody, V domains shown) VH: EVQLVESGGGLVQPGGSLRLSCAASGFTFSSYWMSWVRQAPGKGLEWVATIKQDGSEKYSVDSVKGRFTISRDNPKKSLYLQMNSLRAEDTAVYYCARDYRVEYYHSSDKLKRYYYYGMDVWGQGTTVTVSS VL: DIRVTQSPSSLSASVGDRVTITCRASQSISTYLNWYQQKPGKAPKFLIYAASSLESGVPSRFSGSGSGTDFSLTISSLQPEDFATYYCQQSYSIPITFGQGTRLEIK	> 25	1.02	5.7
ADI-41213 (antibody, V domains shown) VH: EVQLVESGGGLIQPGGSLRLSCAASGFTVSSNYMSWVRQAAGKGLEWVSLIYSGDSTYYADSVKGRFTISRDNSQNTLYLQMNSLRAEDTAVYYCARDASPNVGYYGMDVWGQGTTVTVSS VL: DIVLTQPPSVSVSPGQTASITCSGGKLGDTYACWYQQKPGQSPVLVIYQDSKRPSGIPERFSGSNSGNTATLTISGTQAMDEADYYCQAWDSSTARYVFGTGTKVTVL	> 25	0.577	3.47
ADI-41212 (antibody, V domains shown) VH: EVQLLESGAEVKKPGASVKVSCKASGYTFTDYYIHWVRQAPGQGLEWMGRINPKNGDAIYAQNFQGRVTMTRDTSISTAYMEVSRLTSDDTAVYYCARDQMWLVLDYWGQGTLVTVSS VL: QSALTQPASVSGSPGQSITISCTGTSSDVGGYDYVSWYQQHPGKAPKLMIHDVTNRPSGISHRFSGSKSGNTASLTISGLQAGDEADYYCSSYTRSNTKVFGTGTKVTVL	> 25	0.4	3.18
ADI-41228 (antibody, V domains shown) VH: EVQLLESGPGLVKPSETLSLTCTVSGGSISSYQWNWIRQPPGKGLEWLGYVYYSGSTNYNPSLKSRVTLSVDTSKNQFSLKLSSVTAADTAVYYCARDRRDGSFVFDYWGQGTLVTVSS VL: QSVLIQPASVSGSPGQSITISCTGTSSDVGGYNYVSWYQQHPGKAPKLMIYDVSNRPSGISNRFSGSKSGNTASLTISGLQAEDEADYYCSSYTSSTTLVFGTGTKVTVL	> 25	0.618	4.86
